Patent US20040053822A1

target: HLA-A*0201 (human); experiment: inhibition of 125I-probe binding to purified HLA-A*0201; details: remark: other sources report otherwise

Row | IC50 [nM] | Binder
1 | < 500 | YLQLVFGIEV [MAGE2.157 (10-mer)]
2 | < 500 | KMVELVHFL [MAGE2.112 (9-mer)]

target: HLA-A2401 (human); experiment: inhibition of 125I probe peptide binding to purified HLA; details: not given

Row | relative binding ratio (IC50 standard/IC50 peptide) | Binder
3 | 0.012 | IFATCLGL [MAGE3 peptide, position 177, 8 amino acids]
4 | 0.017 | NWQYFFPVIF [MAGE3 peptide, position 142, 10 amino acids]

The next lines start with the binder.

Row | Binder | relative binding ratio (IC50 standard/IC50 peptide)
5 | QYFFPVIF [MAGE3 peptide, position 144, 8 amino acids] | 0.12
6 | IFSKASSSL [MAGE3 peptide, position 150, 9 amino acids] | 0.016
7 | EMLGSVVGNW [MAGE3 peptide, position 134, 10 amino acids] | 0.0017
8 | LYIFATCL [MAGE3 peptide, position 175, 8 amino acids] | 0.014
9 | LYIFATCLGL [MAGE3 peptide, position 175, 10 amino acids] | 0.048
10 | SYDGLLGDNQI [MAGE3 peptide, position 185, 11 amino acids] | 0.0026

target: HLA-A*0201 (human); experiment: competition vs 125I probe peptide, purified HLA; details: remark: other sources report otherwise

Row | IC50 [nM] | Binder
11 | 9.8 | KMVELVHFL [MAGE2.112 …]
12 | 50 | YLQLVFGIEV [MAGE2.157 …]

target: HLA-B*0702 (human); experiment: competition vs 125I probe peptide, purified HLA; details: remark: other sources report otherwise

Row | IC50 [nM] | Binder
13 | 60 | YPLWSQSI [MAGE3.77.I8 YPLWSQSI]

target: HLA-B*5101 (human); experiment: competition vs 125I probe peptide, purified HLA; details: remark: other sources report otherwise

Row | IC50 [nM] | Binder
14 | 50 | VPISHLYILI [MAGE2.170.110 …]
15 | 70 | VPISMLYIL [MAGE2.170.M5 …]

target: HLA-A*0201 (human); experiment: competition with 125I probe peptide, purified HLA; details: remark: other sources report otherwise

Row | IC50 [nM] | Binder
16 | 50 | YLQLVFGIEV [MAGE2.157 10-mer …]

target: HLA-A*3101 (human); experiment: competition with 125I probe peptide, purified HLA; details: remark: other sources report otherwise

Row | IC50 [nM] | Binder
17 | 6 | YVFPVIFSR [MAGE3.138.V2R …]
18 | 900 | ALIETSYVK [MAGE2.277 9-mer …]
19 | 9000 | TVINYTLWK [MAGE2.73.V2K9 …]

target: HLA-A*6801 (human); experiment: competition with 125I probe peptide, purified HLA; details: remark: other sources report otherwise

Row | IC50 [nM] | Binder
20 | 8000 | LVHFLLLKY [MAGE2/3.116 9-mer …]
21 | 400 | LVHFLLLK [MAGE2/3.116 8-mer LVHFLLLK]

target: HLA-A*0301 (human); experiment: competition with 125I probe peptide, purified HLA; details: remark: other sources report otherwise

Row | IC50 [nM] | Binder
22 | 500 | LLGDNQIMPK [MAGE1/3.189 10-mer …]
23 | 20 | SVFSTTINK [MAGE2.69.V2K9 …]
24 | 5000 | YFFPVIFSK [MAGE3.138 9-mer …]

target: HLA-A*3301 (human); experiment: competition with 125I probe peptide, purified HLA; details: remark: other sources report otherwise

Row | IC50 [nM] | Binder
25 | 9 | SMLEVFEGR [MAGE2.226 9-mer …]

target: HLA-A*1101 (human); experiment: competition with 125I probe peptide, purified HLA; details: remark: other sources report otherwise

Row | IC50 [nM] | Binder
26 | 3 | YVFPVIFSK [MAGE3.138.V2 …]
27 | 40 | LVHFLLLK [MAGE2/3.116 8-mer LVHFLLLK]

target: HLA-A*2401 (human); experiment: inhibition of 125I-labelled standard peptide binding to purified HLA; details: not given

Row | relative binding ratio (IC50 standard peptide / IC50 test peptide) | Binder
28 | 0.0017 | EMLGSVVGNW [MAGE3 134-143 (position 134, 10 amino acids)]
29 | 0.048 | LYIFATCLGL [MAGE3 175-184 (position 175, 10 amino acids)]
30 | 0.12 | QYFFPVIF [MAGE3 144-151 (position 144, 8 amino acids)]
31 | 0.016 | IFSKASSSL [MAGE3 150-158 (position 150, 9 amino acids)]
32 | 0.017 | NWQYFFPVIF [MAGE3 142-151 (position 142, 10 amino acids)]

Second part, the binder before the results:

Row | Binder | relative binding ratio (IC50 standard peptide / IC50 test peptide)
33 | SYDGLLGDNQI [MAGE3 185-195 (position 185, 11 amino acids)] | 0.0026
34 | IFATCLGL [MAGE3 177-184 (position 177, 8 amino acids)] | 0.012
35 | VFEGREDSIL [MAGE3 230-239 (position 230, 10 amino acids)] | -0.0005
36 | HFVQENYL [MAGE3 249-256 (position 249, 8 amino acids)] | -0.0004
37 | NYPLWSQSY [MAGE3 76-84 (position 76, 9 amino acids)] | 0.027
38 | IWEELSVL [MAGE3 221-228 (position 221, 8 amino acids)] | -0.0004
39 | VFEGREDSI [MAGE3 230-238 (position 230, 9 amino acids)] | -0.0004
40 | LYIFATCL [MAGE3 175-182 (position 175, 8 amino acids)] | 0.014
